Paper PMC3351163

Molecular target: TetR(B) (UniProt P04483 1-207)
Experiment: cytometric bead binding assay

Sequence of TetR(B) (P04483 whole entry): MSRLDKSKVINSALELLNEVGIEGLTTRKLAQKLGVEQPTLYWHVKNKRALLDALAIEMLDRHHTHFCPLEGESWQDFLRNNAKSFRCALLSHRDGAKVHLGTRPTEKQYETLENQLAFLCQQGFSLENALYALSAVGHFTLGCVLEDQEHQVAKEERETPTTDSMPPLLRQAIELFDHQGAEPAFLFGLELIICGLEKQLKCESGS

B1: 5-1.2m2 (structured_RNA)
RNA: GGAUCCAGGCAGUGUAAGGUCGAUACGGACGGAAUGUGAUGGCCUGGAUCCAAA
binding result: no binding
